From the supplement of paper PMC9170038

System: MS2 coat protein
Assay: apparent KD of MS2 coat protein; designed switch direction (-1 OFF switch, 1 ON switch): -1; higher = weaker reporter binding
Outline: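 The buffer was Tris-HCl pH 7.5 with KCl, MgCl2, BSA, DTT, tRNA and Tween-20. In it, SNAP-549-labelled MS2 coat protein was titrated in doubling steps from 0.7 or 1.5 nM to 3 µM over chip-bound RNA switches transcribed by stalled E. coli RNA polymerase on Illumina chips. Apparent KD is the per-design median over clusters of curve fits to normalised fluorescence.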

[1] = Eterna round: R95, input ligand: FMN 200 uM
[2] = Eterna round: R95, input ligand: microRNA oligo, concentration not stated
[3] = Eterna round: R95, input ligand: none
[4] = input ligand: microRNA oligo, concentration not stated

| Sequence | apparent KD of MS2 coat protein [1] | apparent KD of MS2 coat protein [2] | apparent KD of MS2 coat protein [3] | apparent KD of MS2 coat protein (input ligand: FMN 200 uM) | apparent KD of MS2 coat protein (input ligand: none) | apparent KD of MS2 coat protein [4] |
| --- | --- | --- | --- | --- | --- | --- |
| GAUCGGACGUGGUCAGGUAACAUGAGGAUCACCCAUGUAGGUCUAGGAACAAGCUUUUUGAAAGCUCGUCUUAUAUA [JR_SV3TOV1_Sub057] (puzzle: Sensor v3, turn-off variant 1) | 0.0448 µM | 0.0255 µM | 0.0493 µM | – | – | – |
| GGUGGACAUGAGGAUCACCCAUGUGAGGAUAUCGGCUGGCUAGCGGCGGACGGCUGCUCGAGAAGGCGCAUUGU [Exclusion 1 V84] (puzzle: Exclusion 1) | – | 0.0611 µM | – | – | – | – |
| AUAAAUAAGGAGGAUAUCGAAUCGGAAACGAUUCGAGAAGGCCUAACAUGAGGAUCACCCAUGUUCCUUAAAUA [Mat - Exclusion 6 - Eli Mod - D63] (puzzle: Exclusion 6) | 0.0302 µM | 0.0176 µM | 0.0208 µM | – | – | – |
| GGCAUCGGAGGAUAUAUUUAUGGUGAUACCGGAAGCUUUCUACUUGAGGAUCACCCAAGUAGAAGGCCGAUGCC [jl-ex2.4.85 ViennaUCT mod] (Eterna round: R97, puzzle: Exclusion 2) | – | – | – | 0.0395 µM | 0.0137 µM | – |
| UAUGGUAAAGUCAGGAUAUACGUACAGAAUUCUAGGUAGAAGGGACAUGAGGAUCACCCAUGUAUGGUAGUGUU [Ex4 #43] (Eterna round: R97, puzzle: Brourd's mod of Exclusion 4) | – | – | – | 0.262 µM | 0.0669 µM | – |
| GCAAGCUUUUGCUCGUCUUACAUGAGGAUCACCCAUGUCGGGUGCUUGCUUCGGGCCCGGGCCUCCCGGGCCCGGGC [-43.3, -67 kcal, A 10%] (Eterna round: R97, puzzle: Sensor, turn-off variant 1) | – | – | – | 0.0618 µM | 0.0663 µM | – |
| GGCCCUAGGGUCAGACGCACAAGCUUUUUGCUCGUUUUAACAUGAGGAUCACCCAUGUCUAGUGGAUCUGAUCGGGU [Mausinonra] (puzzle: Sensor v3, turn-off variant 2) | 0.0206 µM | 0.111 µM | 0.0185 µM | – | – | – |
| UUCUUGGCAGGAUAUGCUUUUUUAGACAUGAGGAUCACCCAUGUGAUUAUUUUUGGUUUUGCAGAAGGGCCUUAAU [JR_E5_Sub042] (puzzle: Exclusion 5) | – | 0.0599 µM | – | – | – | – |
| UUAUUAUAUGAAGGAUAUACUUAACAUGAGGAUCACCCAUGUGGUGUUGUGAGUGAGUGAGUUUAGUAGAAGGUCAAGUAUUUU [JMF's solution 51] (Eterna round: R96, puzzle: Exclusion NG 2) | – | – | – | 0.417 µM | 0.341 µM | 0.494 µM |
| UACAAGCAAGGAUAUACAUGAGGAUCACCCAUGUCACUCCUAGCGCGGGUUUUGAAAUGUAGAAGGUGCACCUG [EX3 B.14] (Eterna round: R97, puzzle: Exclusion 3) | – | – | – | 0.0173 µM | 0.0205 µM | – |
| GAGUAGAGAGGAUAUGCAAUGAUCAUCGUACGAUGAGGCUGACAUGAGGAUCACCCAUGUAGAAGGCUCUGAUC [EX2 #19] (Eterna round: R97, puzzle: Exclusion 2) | – | – | – | 0.0221 µM | 0.0307 µM | – |
| CGUCUGUAAGGAUAUGGUUGCAUCAACAUGAGGAUCACCCAUGUAACGUGGGACUAGUGAUUAGAAGGUACGAACG [EX5 #60] (Eterna round: R97, puzzle: Exclusion 5) | – | – | – | 0.0938 µM | 0.118 µM | – |
| UGUGUGUGAGGAUAUACAAUUGUGUGUGGAAACGCGCGCGUACAUGAGGAUCACCCAUGUAGAAGGCGCGCGCG [-30.7, -27.4 kcal A 24%, 6bis,6bis] (Eterna round: R97, puzzle: Exclusion 2) | – | – | – | 0.0184 µM | 0.0179 µM | – |
| GAUUACAACGAAGACAAGCACAUGAGGAUCACCCAUGUGUAAAAUCGAGUGGGCCCACUCGUACCUCAACACCGUCU [JR_Sensorv2_tov_Sub304] (Eterna round: R96, puzzle: Sensor v2, turn-off variant) | – | – | – | 0.0189 µM | 0.0198 µM | 0.0158 µM |
| UUAACAUGCUGGUGAUCAUACAUGAGGAUCACCCAUGUAACAAGCUUUUUGCUCGUCUUAUAAUUUAAGAUCACCAG [Stov1/7-A1] (Eterna round: R97, puzzle: Sensor, turn-off variant 1) | – | – | – | 0.017 µM | 0.0159 µM | – |
| AGUAACUAUCACGAAAGUGAUAGUUACAAUAGCAAGUGAACAUGAGGAUCACCCAUGUCCUCGUUUGCUCGUCUUAU [Sensor 3 - 21] (puzzle: Sensor v3, turn-off variant 2) | 0.134 µM | 0.418 µM | 0.136 µM | – | – | – |
| GCCCGUGGGCAAGGAUAUCCUACGCUGUUCUGGUUCGUGUCUGUCACAUGAGGAUCACCCAUGUGGGAGAAGGUGCACCAGGGU [Design 52] (Eterna round: R96, puzzle: Exclusion NG 2) | – | – | – | 0.0135 µM | 0.0144 µM | 0.0107 µM |
| AACGAUCUAGGAUAUACAUGAGGAUCACCCAUGUAAGAGCCCGAACCGGGCUCCCUCUGUAGAAGGAGGUCAAA [Rileququve] (puzzle: Exclusion 3) | – | 0.0273 µM | – | – | – | – |
| ACGAAACAUGAGGAUCACCCAUGUGAGGAUAUGUAAAGACUAGACAAAGAACAGAAAAACAGAAGGCACACAGA [JR_Exclusion1_Sub002] (puzzle: Exclusion 1) | 0.028 µM | 0.0197 µM | 0.0267 µM | – | – | – |
| CCACGUCCGUACGUGUACUUGUCUCCUGAGAGCACGGGCACAUGAGGAUCACCCAUGUUUUUGCUCGUCUUAUGAGC [JR_Sensorv2_tov2_Sub716] (Eterna round: R96, puzzle: Sensor v2, turn-off variant 2) | – | – | – | 0.0138 µM | 0.0177 µM | 0.0254 µM |
| CGUCCUGUAGUCAGGAUAUUGUCUCGGAUACGAAACAAGAAGGGACAUGAGGAUCACCCAUGUAAUCAGGACGA [Malc #30 mod 13] (puzzle: Brourd's mod of Exclusion 4) | 0.0195 µM | 0.0365 µM | 0.0365 µM | – | – | – |
| UAUCGGGACUGAGGAUAUUCGUUCGAGCACGAAGAAGAAGGUAGUGUCAGGGACAUGAGGAUCACCCAUGUGAUCUCAGUCCCA [JL ViennaUCT Erinle mod 7] (Eterna round: R96, puzzle: Exclusion NG 1) | – | – | – | 0.0718 µM | 0.067 µM | 0.0604 µM |
| GUAUGUUAUGAGGAUAUCGGUGAACAUACACAUCGAGAAGGCAUGACAUGAGGAUCACCCAUGUCAAGGAUGAG [Exclusion 6 - B - 18:c] (puzzle: Exclusion 6) | 0.0719 µM | 0.0177 µM | 0.0227 µM | – | – | – |
| CUCGUGCAGCAAAGCUGUACGAGUACAUGAGGAUCACCCAUGUAGGAUAUGGUACGCAAAGCGUGCUAGAAGGACGUGUGUAUG [Mat - Exclusion NG 3 - Mod of JL - D91] (Eterna round: R96, puzzle: Exclusion NG 3) | – | – | – | 0.134 µM | 0.058 µM | 0.0287 µM |
| GGUUGGCGAGGAUAUACAUGAGGAUCACCCAUGUGAGAGAAAAAAGUGAGGAAGAAAAGUAGAAGGCGCUGACG [salish99-ex3-14] (Eterna round: R96, puzzle: Exclusion 3) | – | – | – | 0.354 µM | 0.084 µM | 0.105 µM |
